Reference: article doi:10.1101/2021.05.01.442081

Biological target: T1, GST-FOXD3 (Mus musculus, UniProt Q61060 1-465)
T1 sequence: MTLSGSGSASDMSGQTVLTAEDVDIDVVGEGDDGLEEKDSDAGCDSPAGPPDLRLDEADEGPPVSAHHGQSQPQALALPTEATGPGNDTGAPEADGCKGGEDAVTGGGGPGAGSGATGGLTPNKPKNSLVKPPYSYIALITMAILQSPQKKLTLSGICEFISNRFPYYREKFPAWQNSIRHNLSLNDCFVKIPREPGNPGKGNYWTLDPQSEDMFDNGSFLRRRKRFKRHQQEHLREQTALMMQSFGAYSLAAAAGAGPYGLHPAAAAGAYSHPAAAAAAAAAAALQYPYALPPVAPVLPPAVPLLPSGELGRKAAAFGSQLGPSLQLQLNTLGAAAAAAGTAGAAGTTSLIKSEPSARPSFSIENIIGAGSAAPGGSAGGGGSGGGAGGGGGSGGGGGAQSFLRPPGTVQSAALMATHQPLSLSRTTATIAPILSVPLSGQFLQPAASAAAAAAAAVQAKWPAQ
Test: EMSA

B1: MERVL-LTR (dsDNA)
DNA 1: AGACTCAAAGCAAAACAGGCTCCTAGAGGGGAGGT
DNA 2: ACCTCCCCTCTAGGAGCCTGTTTTGCTTTGAGTCT
- binding result: binds
